Targets include NHERF2_1, Q15599; DVL2, O14641; CNKSR3, Q6P9H4; MAGI3_6, Q5TCQ9; PDZRN4_2, Q6ZMN7; SDCBP_1, O00560; MAGI1_4, Q96QZ7; TJP1_1, Q07157; DLG5_2, Q8TDM6; GIPC3, Q8TF64; CARD14, Q9BXL6.
What all share (experiment): holdup assay
Holding throughout (parameters): key: below the threshold = too weak to quantify, mostly under pKd 3.1 to 4

The target of a further assay is T1, PARD6G, Q9BYG4.
T1 sequence (Q9BYG4 153-261, limits assumed, looked up): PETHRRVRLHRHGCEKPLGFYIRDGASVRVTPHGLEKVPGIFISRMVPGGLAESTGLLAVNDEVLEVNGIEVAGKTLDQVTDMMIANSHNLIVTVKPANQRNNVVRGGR

A further assay deals with T2, MPP1, Q00013.
T2 sequence (Q00013 66-162, limits assumed, looked up): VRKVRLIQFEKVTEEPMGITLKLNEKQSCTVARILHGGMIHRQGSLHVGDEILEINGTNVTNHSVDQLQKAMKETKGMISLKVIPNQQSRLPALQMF

For the next assay, the target named is T3, APBA3_2, O96018.
T3 sequence (O96018 480-570, limits assumed, looked up): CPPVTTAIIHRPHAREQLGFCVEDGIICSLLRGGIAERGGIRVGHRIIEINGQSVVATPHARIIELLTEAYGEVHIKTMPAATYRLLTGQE

Another assay has as its target T4, MPDZ_11, O75970.
T4 sequence (O75970 1720-1817, limits assumed, looked up): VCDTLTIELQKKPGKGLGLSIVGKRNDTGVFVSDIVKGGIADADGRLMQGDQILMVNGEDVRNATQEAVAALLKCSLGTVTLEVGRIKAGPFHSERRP

A further assay deals with T5, SHANK3, Q9BYB0.
T5 sequence (Q9BYB0 641-750, limits assumed, looked up): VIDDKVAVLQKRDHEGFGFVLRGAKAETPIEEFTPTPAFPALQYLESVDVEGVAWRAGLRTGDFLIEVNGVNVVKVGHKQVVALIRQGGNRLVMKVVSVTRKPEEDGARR

In another assay the target is T6, PTPN13_4, Q12923.
T6 sequence (Q12923 1783-1878, limits assumed, looked up): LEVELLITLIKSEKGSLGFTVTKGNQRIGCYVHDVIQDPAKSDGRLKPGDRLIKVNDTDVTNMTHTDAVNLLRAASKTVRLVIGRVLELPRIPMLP

The next assay deals with T7, PDZD8, Q8NEN9.
T7 sequence (Q8NEN9 361-459, limits assumed, looked up): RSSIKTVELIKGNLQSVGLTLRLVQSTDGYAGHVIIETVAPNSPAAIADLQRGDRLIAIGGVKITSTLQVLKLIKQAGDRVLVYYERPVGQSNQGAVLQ

The next assay concerns the target T8, MPDZ_3, O75970.
T8 sequence (O75970 372-473, limits assumed, looked up): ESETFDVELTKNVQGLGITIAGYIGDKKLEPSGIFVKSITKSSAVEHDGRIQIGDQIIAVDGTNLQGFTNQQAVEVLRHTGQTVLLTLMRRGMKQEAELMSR

The target of another assay is T9, GIPC1, O14908.
T9 sequence (O14908 128-223, limits assumed, looked up): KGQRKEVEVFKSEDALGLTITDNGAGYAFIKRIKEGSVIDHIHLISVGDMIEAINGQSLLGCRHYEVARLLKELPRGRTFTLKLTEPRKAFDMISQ

For a further assay, the target named is T10, PDZRN3_2, Q9UPQ7.
T10 sequence (Q9UPQ7 414-513, limits assumed, looked up): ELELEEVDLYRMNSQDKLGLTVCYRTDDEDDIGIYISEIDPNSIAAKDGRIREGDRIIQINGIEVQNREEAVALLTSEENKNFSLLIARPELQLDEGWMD

The target in another assay is T11, PDZD2_1, O15018.
T11 sequence (O15018 80-192, limits assumed, looked up): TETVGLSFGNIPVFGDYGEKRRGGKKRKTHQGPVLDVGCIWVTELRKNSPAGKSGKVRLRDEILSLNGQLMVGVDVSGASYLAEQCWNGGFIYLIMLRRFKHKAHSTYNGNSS

The target of the next assay is T12, NHERF1_1, O14745.
T12 sequence (O14745 9-104, limits assumed, looked up): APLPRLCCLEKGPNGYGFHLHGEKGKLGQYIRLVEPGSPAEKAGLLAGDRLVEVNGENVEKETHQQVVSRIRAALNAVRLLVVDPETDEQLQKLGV

The target in a further assay is T13, PDZD2_4, O15018.
T13 sequence (O15018 723-823, limits assumed, looked up): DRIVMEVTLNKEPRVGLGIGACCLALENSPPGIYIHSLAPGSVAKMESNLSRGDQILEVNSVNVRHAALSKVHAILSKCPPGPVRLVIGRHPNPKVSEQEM
Particulars: plain residues with an end cap or a label only (N-terminal biotin on a linker: ttds).

[1] abbreviates: plain residues with an end cap or a label only (N-terminal biotin on a linker: ttds).
[2] abbreviates: plain residues with an end cap or a label only (N-terminal biotin on a linker: none).

We go through four molecules from PMC9482650, “Quantitative fragmentomics allow affinity mapping of interactomes” (Nature Communications, 2022).

Usually pKd stands for −log10 of the Kd, conventionally taken in molar units.

Chain of DVL2, O14641 (O14641 260-359): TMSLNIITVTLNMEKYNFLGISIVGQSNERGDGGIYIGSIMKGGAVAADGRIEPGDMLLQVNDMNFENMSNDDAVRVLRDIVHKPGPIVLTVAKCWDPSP
Chain of CARD14, Q9BXL6 (Q9BXL6 558-663): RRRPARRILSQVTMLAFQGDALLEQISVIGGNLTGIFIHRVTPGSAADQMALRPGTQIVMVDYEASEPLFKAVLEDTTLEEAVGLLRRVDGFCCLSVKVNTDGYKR
Chain of MAGI3_6, Q5TCQ9 (Q5TCQ9 1014-1103): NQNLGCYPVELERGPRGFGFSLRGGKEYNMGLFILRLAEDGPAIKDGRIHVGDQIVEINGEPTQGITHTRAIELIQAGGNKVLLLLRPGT
Chain of MAGI1_4, Q96QZ7 (Q96QZ7 other isoform, or with tags, fused parts or gaps): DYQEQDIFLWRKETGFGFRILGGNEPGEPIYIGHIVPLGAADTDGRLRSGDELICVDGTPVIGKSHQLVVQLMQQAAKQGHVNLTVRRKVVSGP
Chain of GIPC3, Q8TF64 (Q8TF64 107-202): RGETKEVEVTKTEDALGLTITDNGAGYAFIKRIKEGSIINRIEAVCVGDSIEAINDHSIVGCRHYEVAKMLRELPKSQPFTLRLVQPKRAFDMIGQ
Chain of TJP1_1, Q07157 (Q07157 18-120): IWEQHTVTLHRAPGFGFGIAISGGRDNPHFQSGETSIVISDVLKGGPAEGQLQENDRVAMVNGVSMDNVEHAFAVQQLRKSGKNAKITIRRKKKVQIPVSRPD
Chain of NHERF2_1, Q15599 (Q15599 9-91): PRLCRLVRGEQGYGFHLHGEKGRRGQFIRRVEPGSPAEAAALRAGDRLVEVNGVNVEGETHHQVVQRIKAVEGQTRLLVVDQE
Chain of CNKSR3, Q6P9H4 (Q6P9H4 203-303): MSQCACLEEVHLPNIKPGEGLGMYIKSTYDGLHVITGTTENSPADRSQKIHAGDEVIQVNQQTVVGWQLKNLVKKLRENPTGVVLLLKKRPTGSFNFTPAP
Chain of SDCBP_1, O00560 (O00560 111-198): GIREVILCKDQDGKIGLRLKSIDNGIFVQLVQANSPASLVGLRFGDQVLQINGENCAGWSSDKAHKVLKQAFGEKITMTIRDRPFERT
Chain of PDZRN4_2, Q6ZMN7 (Q6ZMN7 389-498): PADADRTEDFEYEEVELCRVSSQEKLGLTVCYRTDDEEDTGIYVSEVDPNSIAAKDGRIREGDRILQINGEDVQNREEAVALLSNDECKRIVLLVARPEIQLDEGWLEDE
Chain of DLG5_2, Q8TDM6 (Q8TDM6 714-800): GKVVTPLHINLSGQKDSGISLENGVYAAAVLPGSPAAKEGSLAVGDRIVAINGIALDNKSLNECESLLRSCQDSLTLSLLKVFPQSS

Turning to SKPTRRETEV [HPV35-E6, P27228], the pKd result in the assay with PARD6G, Q9BYG4 (setting [1]) is “below the threshold”; with MPP1, Q00013 (setting [1]) it was “below the threshold”; with APBA3_2, O96018 (setting [1]), “below the threshold”; in the assay with NHERF2_1, Q15599 (setting [1]), 3.77; with MPDZ_11, O75970 (setting [1]) it was “below the threshold”; in the assay with DVL2, O14641 (setting [1]), “below the threshold”. In addition, the pKd entry is “below the threshold” with SHANK3, Q9BYB0 (setting [1]); 3.57 with CNKSR3, Q6P9H4 (setting [1]); “below the threshold” with PTPN13_4, Q12923 (setting [1]); 3.81 in the assay with MAGI3_6, Q5TCQ9 (setting [1]); “below the threshold” in the assay with PDZD8, Q8NEN9 (setting [1]); “below the threshold” with MPDZ_3, O75970 (setting [1]). The pKd result is “below the threshold” with PDZRN4_2, Q6ZMN7 (setting [1]); 4.69 with GIPC1, O14908 (setting [1]); 3.57 with PDZRN3_2, Q9UPQ7 (setting [1]); “below the threshold” with PDZD2_1, O15018 (setting [1]); “below the threshold” with SDCBP_1, O00560 (setting [1]); “below the threshold” with NHERF1_1, O14745 (setting [1]). Also, the pKd result is “below the threshold” with MAGI1_4, Q96QZ7 (setting [1]); “below the threshold” with TJP1_1, Q07157 (setting [1]); “below the threshold” in the assay with PDZD2_4, O15018; 4.72 with DLG5_2, Q8TDM6 (setting [1]).

As to RLQRRRETQV [HPV18-E6, P06463], the negative logarithm of the Kd (pKd) entry with PARD6G, Q9BYG4 (setting [1]) is reported as “below the threshold”; with MPP1, Q00013 (setting [1]), “below the threshold”; with APBA3_2, O96018 (setting [1]) it was “below the threshold”; with NHERF2_1, Q15599 (setting [1]), “below the threshold”; with MPDZ_11, O75970 (setting [1]) it was “below the threshold”; with DVL2, O14641 (setting [1]) it was “below the threshold”. The negative-log Kd (pKd) entry is “below the threshold” in the assay with SHANK3, Q9BYB0 (setting [1]); 4.1 with CNKSR3, Q6P9H4 (setting [1]); 4.03 with PTPN13_4, Q12923 (setting [1]); “below the threshold” with MAGI3_6, Q5TCQ9 (setting [1]); “below the threshold” with PDZD8, Q8NEN9 (setting [1]); “below the threshold” in the assay with GIPC3, Q8TF64 (setting [1]). For the same molecule, the pKd entry with MPDZ_3, O75970 (setting [1]) was “below the threshold”; in the assay with CARD14, Q9BXL6 (setting [1]), “below the threshold”; with PDZRN4_2, Q6ZMN7 (setting [1]), “below the threshold”; in the assay with GIPC1, O14908 (setting [1]), 4.44; in the assay with PDZD2_1, O15018 (setting [1]), “below the threshold”; with SDCBP_1, O00560 (setting [1]), “below the threshold”. Further, the pKd entry is “below the threshold” with NHERF1_1, O14745 (setting [1]); 4.28 with MAGI1_4, Q96QZ7 (setting [1]); “below the threshold” with TJP1_1, Q07157 (setting [1]); “below the threshold” in the assay with PDZD2_4, O15018; “below the threshold” in the assay with DLG5_2, Q8TDM6 (setting [1]).

Turning to SGSRPSATVV [HPV73-E6, Q82005], the pKd result with PARD6G, Q9BYG4 (setting [1]) was “below the threshold”; in the assay with MPP1, Q00013 (setting [1]), 4.14; with APBA3_2, O96018 (setting [1]), “below the threshold”; with NHERF2_1, Q15599 (setting [1]), “below the threshold”; with MPDZ_11, O75970 (setting [1]), “below the threshold”; in the assay with DVL2, O14641 (setting [1]) it was “below the threshold”. Moreover, the negative-log Kd (pKd) entry was “below the threshold” with SHANK3, Q9BYB0 (setting [1]); “below the threshold” with CNKSR3, Q6P9H4 (setting [1]); “below the threshold” in the assay with PTPN13_4, Q12923 (setting [1]); “below the threshold” with MAGI3_6, Q5TCQ9 (setting [1]); 4.04 in the assay with PDZD8, Q8NEN9 (setting [1]); “below the threshold” with GIPC3, Q8TF64 (setting [1]). Besides, the pKd result in the assay with MPDZ_3, O75970 (setting [1]) was “below the threshold”; with CARD14, Q9BXL6 (setting [1]), 4.12; with PDZRN4_2, Q6ZMN7 (setting [1]), “below the threshold”; with GIPC1, O14908 (setting [1]), 4.64; with PDZRN3_2, Q9UPQ7 (setting [1]) it was “below the threshold”; with PDZD2_1, O15018 (setting [1]), “below the threshold”. Besides, the pKd entry with SDCBP_1, O00560 (setting [1]) was “below the threshold”; in the assay with NHERF1_1, O14745 (setting [1]) it was “below the threshold”; with MAGI1_4, Q96QZ7 (setting [1]) it was “below the threshold”; with TJP1_1, Q07157 (setting [1]), “below the threshold”; in the assay with PDZD2_4, O15018, 4.26.

Turning to NLNSSRVPDLLV [SARS-CoV2-E, P0DTC4], the negative logarithm of the Kd (pKd) result is “below the threshold” in the assay with PARD6G, Q9BYG4 (setting [2]); “below the threshold” in the assay with MPP1, Q00013 (setting [2]); “below the threshold” with APBA3_2, O96018 (setting [2]); “below the threshold” with NHERF2_1, Q15599 (setting [2]); “below the threshold” with MPDZ_11, O75970 (setting [2]); “below the threshold” in the assay with DVL2, O14641 (setting [2]). For the same molecule, the pKd with SHANK3, Q9BYB0 (setting [2]) was 3.83; in the assay with CNKSR3, Q6P9H4 (setting [2]), “below the threshold”; with PTPN13_4, Q12923 (setting [2]) it was 4.64; with MAGI3_6, Q5TCQ9 (setting [2]), “below the threshold”; with PDZD8, Q8NEN9 (setting [2]) it was “below the threshold”; with GIPC3, Q8TF64 (setting [2]) it was “below the threshold”. Further, the pKd entry in the assay with MPDZ_3, O75970 (setting [2]) is “below the threshold”; in the assay with CARD14, Q9BXL6 (setting [2]) it was “below the threshold”; with PDZRN4_2, Q6ZMN7 (setting [2]) it was “below the threshold”; in the assay with GIPC1, O14908 (setting [2]), “below the threshold”; with PDZRN3_2, Q9UPQ7 (setting [2]), “below the threshold”; with PDZD2_1, O15018 (setting [2]), “below the threshold”. The pKd result with SDCBP_1, O00560 (setting [2]) is “below the threshold”; with NHERF1_1, O14745 (setting [2]), “below the threshold”; with MAGI1_4, Q96QZ7 (setting [2]), 3.75; with TJP1_1, Q07157 (setting [2]), “below the threshold”; with DLG5_2, Q8TDM6 (setting [2]), “below the threshold”.
